# Measurements: patent US20220002429A1, “TUMOR CELL AGGREGATION INHIBITORS' FOR TREATING CANCER” (Northwestern University, priority 2018, published 2022)
# B1: EGF: epidermal growth factor supplemented to culture media at 10 ng/ml (protein, UniProt P01133 23-1207, looked up)
# Pro-epidermal growth factor: PQHWSCPEGTLAGNGNSTCVGPAPFLIFSHGNSIFRIDTEGTNYEQLVVDAGVSVIMDFHYNEKRIYWVDLERQLLQRVFLNGSRQERVCNIEKNVSGMAINWINEEVIWSNQQEGIITVTDMKGNNSHILLSALKYPANVAVDPVERFIFWSSEVAGSLYRADLDGVGVKALLETSEKITAVSLDVLDKRLFWIQYNREGSNSLICSCDYDGGSVHISKHPTQHNLFAMSLFGDRIFYSTWKMKTIWIANKHTGKDMVRINLHSSFVPLGELKVVHPLAQPKAEDDTWEPEQKLCKLRKGNCSSTVCGQDLQSHLCMCAEGYALSRDRKYCEDVNECAFWNHGCTLGCKNTPGSYYCTCPVGFVLLPDGKRCHQLVSCPRNVSECSHDCVLTSEGPLCFCPEGSVLERDGKTCSGCSSPDNGGCSQLCVPLSPVSWECDCFPGYDLQLDEKSCAASGPQPFLLFANSQDIRHMHFDGTDYGTLLSQQMGMVYALDHDPVENKIYFAHTALKWIERANMDGSQRERLIEEGVDVPEGLAVDWIGRRFYWTDRGKSLIGRSDLNGKRSKIITKENISQPRGIAVHPMAKRLFWTDTGINPRIESSSLQGLGRLVIASSDLIWPSGITIDFLTDKLYWCDAKQSVIEMANLDGSKRRRLTQNDVGHPFAVAVFEDYVWFSDWAMPSVMRVNKRTGKDRVRLQGSMLKPSSLVVVHPLAKPGADPCLYQNGGCEHICKKRLGTAWCSCREGFMKASDGKTCLALDGHQLLAGGEVDLKNQVTPLDILSKTRVSEDNITESQHMLVAEIMVSDQDDCAPVGCSMYARCISEGEDATCQCLKGFAGDGKLCSDIDECEMGVPVCPPASSKCINTEGGYVCRCSEGYQGDGIHCLDIDECQLGEHSCGENASCTNTEGGYTCMCAGRLSEPGLICPDSTPPPHLREDDHHYSVRNSDSECPLSHDGYCLHDGVCMYIEALDKYACNCVVGYIGERCQYRDLKWWELRHAGHGQQQKVIVVAVCVVVLVMLLLLSLWGAHYYRTQKLLSKNPKNPYEESSRDVRSRRPADTEDGMSSCPQPWFVVIKEHQDLKNGGQPVAGEDGQAADGSMQPTSWRQEPQLCGMGTEQGCWIPVSSDKGSCPQVMERSFHMPSYGTQTLEGGVEKPHSLLSANPLWQQRALDPPHQMELTQ
# modifications: Pro-epidermal growth factor
# notes: epidermal growth factor supplemented to culture media at 10 ng/ml
# Tested on: TN1 PDX tumor cells
# Assay: ex vivo aggregation (clustering) assay of dissociated PDX tumor cells, IncuCyte time-lapse imaging
# Type: cell-based, human
# Conditions: media supplemented with EGF (10 ng/ml)
# Method: Cell clustering assay. Freshly dissociated primary tumor cells in single cell suspension were seeded in collagen type I-coated 96-well plates. The plates were put into the IncuCyte live cell imaging system (Essen BioScience), and live images were taken every 2-4 h for up to one week. The cluster number and size were analyzed by Incucyte ZOOM software (Essen BioScience). In specific experiments, primary tumor cells might be sorted based on the expression of CD44 prior to seeding. In other experiments, seeded tumor cells might be transfected with siRNAs (100 nM) or treated with various inhibitors during the clustering assays. For cell viability analysis during clustering, the IncuCyte Cytotox Red reagent (Essen BioScience) was added to the medium according to the manufacturer's instructions.
molecule,measurement,value
B1,cluster formation of TN primary tumor cells,increased cluster formation
